Data on 12 molecules can be found in paper PMC6368608 (Nature Communications, 2019).

Details in all cases: both partners purified
Assay [1] has as its target T1, C.CH505TF gp120 (HIV-1 clade C, CH505 transmitted/founder, UniProt M4M0W3, strain). Description: SPR. Background: SPR reads the build-up and loss of mass on a sensor chip optically.
In assay [2] the target is T2, C.CH505TF gp120 (HIV-1 clade C, CH505 transmitted/founder, UniProt M4M0W3, strain). Description: SPR; BIAcore T200; […]) 5 min at 50 µL/min, 10 min dissociation; […]; global 1:1 Langmuir fit; […].
In assay [3] the target is T2, C.CH505TF gp120. The assay is described as above. The source holds these as a separate data set.
For assay [4], the target named is T1, C.CH505TF gp120. Description: SPR. The source holds these as a separate data set.

Bounds are passed on as bounds.

B1: CH103-S14P (antibody, V domains shown)
V domain 1: QVQLQESGPGVVKPSETLSLTCTVSGGSMGGTYWSWLRLSPGKGLEWIGYIFHTGETNYSPSLKGRVSISVDTSEDQFSLRLRSVTAADTAVYFCASLPRGQLVNAYFRNWGRGSLVSVTA
V domain 2: YELTQPPSVSVSPGQTATITCSGASTNVCWYQVKPGQSPEVVIFENYKRPSGIPDRFSGSKSGSTATLTIRGTQAIDEADYYCQVWDSFSTFVFGSGTQVTVL
Usually Kd stands for the concentration at which binding is half-saturated. In general, koff refers to the rate constant with which the complex falls apart. Read a high koff as fast dissociation. One may read the kon as the second-order rate constant of association. A higher kon goes with fast association. As to B1, in assay [1], the Kd worked out at 50 nM, the koff came to 0.000262 s⁻¹ and the kon stood at 5200 M⁻¹ s⁻¹.

B2: CH103-S14P/G30S (antibody, V domains shown)
V domain 1: QVQLQESGPGVVKPSETLSLTCTVSGGSMSGTYWSWLRLSPGKGLEWIGYIFHTGETNYSPSLKGRVSISVDTSEDQFSLRLRSVTAADTAVYFCASLPRGQLVNAYFRNWGRGSLVSVTA
V domain 2: YELTQPPSVSVSPGQTATITCSGASTNVCWYQVKPGQSPEVVIFENYKRPSGIPDRFSGSKSGSTATLTIRGTQAIDEADYYCQVWDSFSTFVFGSGTQVTVL
In assay [1], B2 gave a dissociation constant (Kd) of 70 nM, a koff of 0.0003 s⁻¹ and a kon of 4000 M⁻¹ s⁻¹.

B3: CH103 UCA (antibody, V domains shown)
VH: QVQLQESGPGLVKPSETLSLTCTVSGGSISSYYWSWIRQPPGKGLEWIGYIYYSGSTNYNPSLKSRVTISVDTSKNQFSLKLSSVTAADTAVYYCASLPRGQLVNAYFDYWGQGTLVTVSS
VL: not shown
notes: also called unmutated common ancestor of the CH103 lineage
B3 had a kon in assay [1] of 23500 M⁻¹ s⁻¹.

B4: CH103 UCA (antibody, V domains shown)
VH: QVQLQESGPGLVKPSETLSLTCTVSGGSISSYYWSWIRQPPGKGLEWIGYIYYSGSTNYNPSLKSRVTISVDTSKNQFSLKLSSVTAADTAVYYCASLPRGQLVNAYFDYWGQGTLVTVSS
VL: not shown
notes: also called unmutated common ancestor of the CH103 lineage; wild-type UCA
B4 gave a Kd in assay [2] of 430 nM. In assay [3], this molecule returned a koff of 0.0101 s⁻¹ and a kon above 10000 M⁻¹ s⁻¹.

B5: CH103 UCA-S30G/S31G (antibody, V domains shown)
VH: QVQLQESGPGLVKPSETLSLTCTVSGGSIGGYYWSWIRQPPGKGLEWIGYIYYSGSTNYNPSLKSRVTISVDTSKNQFSLKLSSVTAADTAVYYCASLPRGQLVNAYFDYWGQGTLVTVSS
VL: not shown
In assay [1], B5 came in with a koff of 0.011 s⁻¹ and a kon of 25200 M⁻¹ s⁻¹.

B6: CH103 UCA-S30G (antibody, V domains shown)
VH: QVQLQESGPGLVKPSETLSLTCTVSGGSIGSYYWSWIRQPPGKGLEWIGYIYYSGSTNYNPSLKSRVTISVDTSKNQFSLKLSSVTAADTAVYYCASLPRGQLVNAYFDYWGQGTLVTVSS
VL: not shown
On to B6, for which, in assay [1], the koff amounted to 0.0117 s⁻¹ and the kon turned out to be 29600 M⁻¹ s⁻¹.

B7: CH103 UCA-P14S (antibody, V domains shown)
VH: QVQLQESGPGLVKSSETLSLTCTVSGGSISSYYWSWIRQPPGKGLEWIGYIYYSGSTNYNPSLKSRVTISVDTSKNQFSLKLSSVTAADTAVYYCASLPRGQLVNAYFDYWGQGTLVTVSS
VL: not shown
In assay [1], B7 displayed a koff of 0.0112 s⁻¹ and a kon of 30000 M⁻¹ s⁻¹.

B8: UCA-P14S (antibody, V domains shown)
VH: QVQLQESGPGLVKSSETLSLTCTVSGGSISSYYWSWIRQPPGKGLEWIGYIYYSGSTNYNPSLKSRVTISVDTSKNQFSLKLSSVTAADTAVYYCASLPRGQLVNAYFDYWGQGTLVTVSS
VL: not shown
As to B8, in assay [2], the Kd came to 370 nM. That is a sub-micromolar value.

B9: UCA-S30G/S31G (antibody, V domains shown)
VH: QVQLQESGPGLVKPSETLSLTCTVSGGSIGGYYWSWIRQPPGKGLEWIGYIYYSGSTNYNPSLKSRVTISVDTSKNQFSLKLSSVTAADTAVYYCASLPRGQLVNAYFDYWGQGTLVTVSS
VL: not shown
B9 came in with a Kd in assay [2] of 440 nM.

B10: UCA-S30G (antibody, V domains shown)
VH: QVQLQESGPGLVKPSETLSLTCTVSGGSIGSYYWSWIRQPPGKGLEWIGYIYYSGSTNYNPSLKSRVTISVDTSKNQFSLKLSSVTAADTAVYYCASLPRGQLVNAYFDYWGQGTLVTVSS
VL: not shown
Molecule B10 came in with a Kd in assay [2] of 400 nM.

B11: CH103 lineage intermediate I3 (antibody, V domains shown)
VH: QVQLQESGPGLVKSSETLSLTCTVSGGSMGGYYWSWLRQSPVKGLEWIGYIFHTGHTNYNPSLESRVTVSVDTSENQFSLRLRSVTAADTAVYYCASLPRGQLVNAFFDNWGQGTLVTVAS
VL: not shown
In assay [4], B11 showed a koff of 0.000234 s⁻¹ and a kon of 24500 M⁻¹ s⁻¹.

B12: I3 (CH103 lineage intermediate) (antibody, V domains shown)
VH: QVQLQESGPGLVKSSETLSLTCTVSGGSMGGYYWSWLRQSPVKGLEWIGYIFHTGHTNYNPSLESRVTVSVDTSENQFSLRLRSVTAADTAVYYCASLPRGQLVNAFFDNWGQGTLVTVAS
VL: not shown
B12: binding in assay [2] was put at a Kd of 9.53 nM.
